Reference: US20140341881A1 (DERMADIS, published 2014)

Experiments:
[1] = biological target: T1, human kallikrein 2 (hK2) (human, UniProt P20151 25-261); assay: cell-based or functional assay
[2] = biological target: human kallikrein hK1 (human, UniProt P06870 25-262); assay: cell-based or functional assay
[3] = biological target: T2, human plasma kallikrein (PK) (human, UniProt P03952 20-638); assay: cell-based or functional assay
[4] = biological target: urokinase plasminogen activator (uPA) (UniProt P00749 21-431, limits assumed); assay: cell-based or functional assay
[5] = biological target: T3, human neutrophil elastase (HNE) (human, UniProt P08246 30-247, limits assumed); assay: cell-based or functional assay
T3 sequence (looked up): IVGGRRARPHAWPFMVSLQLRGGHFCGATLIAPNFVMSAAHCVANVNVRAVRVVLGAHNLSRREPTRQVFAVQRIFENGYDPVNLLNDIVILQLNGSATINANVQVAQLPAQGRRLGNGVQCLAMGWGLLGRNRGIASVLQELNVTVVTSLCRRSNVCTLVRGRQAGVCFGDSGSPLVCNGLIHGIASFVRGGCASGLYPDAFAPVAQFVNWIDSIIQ

[6] = biological target: T1, human kallikrein 2 (hK2); assay: progress curve, pseudo-first order, fluorogenic substrate
Experimental: (§1) Under these conditions, a fixed amount of enzyme (2 nM) was mixed with different concentrations of inhibitor (0-800 nM) and an excess of substrate (10 μM). Each reaction was made in reaction buffer (50 mM Tris pH 7.5, 150 mM NaCl, 0,05% Triton X-100, 0.01% BSA) at 25° C. for 45 min and the rate of product formation was measured using a FLₓ800 fluorescence 96-well microplate reader (Biotek, USA). In this model, inhibition is considered to be irreversible over the course of reaction and the progress of enzyme activity is expressed by product formation (P), beginning at a rate (vz) and is inhibited over time (t) at a first-order rate (kobs), rate constant that is dependent only on inhibitor concentration.

[7] = biological target: T2, human plasma kallikrein (PK); assay: as above
Experimental: as §1

[8] = biological target: T3, human neutrophil elastase (HNE); assay: as above
Experimental: as §1

[9] = biological target: T1, human kallikrein 2 (hK2); assay: residual enzyme activity against [I]o/[E]o, fluorogenic substrate
Experimental: (§2) The stoichiometry of inhibition (SI) values were determined for the inhibition of rACTWT and its variants with hK2 and different other enzymes. An initial test was made with a molar excess of rACT (100 fold) over hK2, PSA, hK1, chymotrypsin (Chtr), plasma kallikrein (PK), urokinase (uPA) and human neutrophile elastase (HNE) enzymes. The reaction was carried out for 30 min at 25° C. (90 min at 37° C. for PSA) in reaction buffer (50 mM Tris pH 7.5, 150 mM NaCl, 0,05% Triton X-100, 0.01% BSA) and residual enzyme activity was measured by adding fluorescent substrates (Z-Phe-Arg-AMC for hK1, hK2 and PK, Suc-Ala-Ala-Pro-Phe-AMC for Chtr, Z-Gly-Gly-Arg-AMC for uPA, MeOSuc-Ala-Ala-Pro-Val-AMC for HNE, and CFP-TFRSA-YFP (TFRSA SEQ ID NO:137) for PSA). Activity of enzyme in presence of inhibitors was compared to uninhibited reaction. For reactions where an inhibition was observed, SI was determined by incubating different concentrations of recombinant serpins. Using linear regression analysis of fractional activity (velocity of inhibited enzyme reaction/velocity of uninhibited enzyme reaction) versus the molar ratio of the inhibitor to enzyme ([Iₒ]/[Eₒ]), the stoichiometry of inhibition, corresponding to the abscissa intercept, was obtained.

[10] = biological target: T2, human plasma kallikrein (PK); assay: as above
Experimental: as §2

[11] = biological target: T3, human neutrophil elastase (HNE); assay: as above
Experimental: as §2

T2 sequence (P03952 20-638 limits assumed): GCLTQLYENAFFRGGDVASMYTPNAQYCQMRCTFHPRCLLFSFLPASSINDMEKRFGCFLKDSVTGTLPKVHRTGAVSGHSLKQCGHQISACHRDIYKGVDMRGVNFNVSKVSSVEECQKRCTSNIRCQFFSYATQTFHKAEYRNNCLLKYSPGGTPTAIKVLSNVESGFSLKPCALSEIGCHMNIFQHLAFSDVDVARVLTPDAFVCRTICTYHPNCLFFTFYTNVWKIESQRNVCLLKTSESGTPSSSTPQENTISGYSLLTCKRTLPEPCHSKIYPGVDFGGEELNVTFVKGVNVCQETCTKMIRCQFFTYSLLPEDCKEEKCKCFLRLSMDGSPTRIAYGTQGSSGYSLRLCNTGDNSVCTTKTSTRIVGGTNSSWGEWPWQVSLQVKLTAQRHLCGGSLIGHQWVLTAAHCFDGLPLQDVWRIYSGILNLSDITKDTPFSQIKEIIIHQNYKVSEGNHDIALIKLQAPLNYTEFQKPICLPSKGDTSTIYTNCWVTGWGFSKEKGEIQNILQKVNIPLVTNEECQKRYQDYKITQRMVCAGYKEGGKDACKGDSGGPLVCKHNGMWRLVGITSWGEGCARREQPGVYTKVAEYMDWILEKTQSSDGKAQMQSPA

INHIBITION % [1]: 100%
INHIBITION % [2]: 0%
INHIBITION % [3]: 100%
INHIBITION % [4]: 0%
INHIBITION % [5]: 60%
kon [6]: 3440 M⁻¹ s⁻¹
kon [7]: 8020 M⁻¹ s⁻¹
kon [8]: 1190 M⁻¹ s⁻¹
SI (stoichiometry of inhibition) [9]: 19
SI (stoichiometry of inhibition) [10]: 16
SI (stoichiometry of inhibition) [11]: 159
B1: rACT6.1 (other)
chain: MRGSHHHHHHSRHPNSPLDEENLTQENQDRGTHVDLGLASANVDFAFSLYKQLVLKAPDKNVIFSPLSISTALAFLSLGAHNTTLTEILKGLKFNLTETSEAEIHQSFQHLLRTLNQSSDELQLSMGNAMFVKEQLSLLDRFTEDAKRLYGSEAFATDFQDSAAAKKLINDYVKNGTRGKITDLIKDLDSQTMMVLVNYIFFKAKWEMPFDPQDTHQSRFYLSKKKWVMVPMMSLHHLTIPYFRDEELSCTVVELKYTGNASALFILPDQDKMEEVEAMLLPETLKRWRDSLEFREIGELYLPKFSISRDYNLNDILLQLGIEEAFTSKADLSGITGARNLAVSQVVHKAVLDVFEEGTEASAATAVKIMTRSNAVETRTIVRFNRPFLMIIVPTDTQNIFFMSKVTNPKQA
notes: recombinant ACT variant, RSL substrate peptide MTRSN; N-terminal His tag, E. coli TG1; also called MD61; MD 61
